We go through one molecule from US20230192897A1 (NUMAB THERAPEUTICS, published 2023).

The target in test [1] is human PDL1 on cells (human, UniProt Q9NZQ7 19-290). Briefly: cell-based or functional assay.
For test [2], the target named is T1, mouse serum albumin (mouse, UniProt P07724 25-608).
T1 construct: Coupled directly to the CM5 chip; also called MSA; mouse SA
Briefly: SPR, SA coupled to chip. The method, then:
(§1) Affinity of molecules to serum albumin (SA) of the different species was determined by SPR measurements using a Biacore T200 device (GE Healthcare). SA was directly coupled to a CM5 sensor chip (GE Healthcare) using amine coupling chemistry. […] The assay was run in a 1× PBS-Tween buffer at pH 5.5.

Test [3] concerns the target T2, human serum albumin (human, UniProt P02768 25-609).
T2 construct: Coupled directly to the CM5 chip; also called HSA; human SA
Briefly: SPR, SA coupled to chip, pH 5.5. The method, then: as §1
(In general: Surface plasmon resonance follows binding to a sensor surface in real time, without labels.)

Test [4] has as its target T3, Fc tagged human PDL1 (human, UniProt Q9NZQ7 19-239).
T3 construct: Bought (Sino Biological, cat. 10084-H02H); captured on the SPR chip; also called PDL1-Fc chimeric protein
Briefly: SPR. In outline:
(§2)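 Kinetics were fitted with a one-to-one Langmuir model to give apparent ka, kd and KD. Binders at 0.12-90 nM (three-fold series) flowed 3 min, with 10 min dissociation and 3 M MgCl₂ regeneration, on a Biacore T200.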

For test [5], the target named is T4, Fc tagged human CD137 (human, UniProt Q07011 24-186).
T4 construct: also called CD137-Fc chimeric protein
Briefly: SPR. In outline:
as §2

Test [6] deals with CD137 on Jurkat NFkB reporter cells (human, UniProt Q07011 24-255). Briefly: cell-based or functional assay.

B1: PRO963 (other)
chain: DIQMTQSPSSLSASVGDRVTITCQASQSINDYLAWYQQKPGKAPKLLIYKASTLASGVPSRFSGSGSGTDFTLTISSLQPEDFATYYCQQGYIITDIDNVFGTGTKVTVLGGGGGSQVQLQESGPGLVKPSETLSLTCKVSGFSFSNSYWICWIRQPPGKGLEWIGCTFVGSSDSTYYANWAKGRVTISVDSSKNQFSLKLSSVTAADTAVYYCARHPSDAVYGYANNLWGQGTLVTVSSGGGGSGGGGSGGGGSGGGGSIQMTQSPSSLSASVGDRVTITCQASQSINNVLAWYQQKPGKAPKLLIYRASTLASGVPSRFSGSGSGTDFTLTISSLQPEDFATYYCQSSYGNYGDFGTGTKVTVLGGGGGSQVQLQESGPGLVKPSETLSLTCKVSGFSFSSGYDMCWIRQPPGKGLEWIGCVVAGSVDITYYASWAKGRVTISVDSSKNQFSLKLSSVTAADTAVYYCARKDAYSDAFNLWGQGTLVTVSSGGGGSGGGGSIQMTQSPSSLSASVGDRVTITCQSSESVYSNNQLSWYQQKPGQPPKLLIYDASDLASGVPSRFSGSGSGTDFTLTISSLQPEDFATYYCAGGFSSSSDTAFGGGTKLTVLGGGGGSGGGGSGGGGSGGGGSEVQLVESGGGLVQPGGSLRLSCAASGFSLSSNAMGWVRQAPGKGLEYIGIISVGGFTYYASWAKGRFTISRDNSKNTVYLQMNSLRAEDTATYFCARDRHGGDSSGAFYLWGQGTLVTVSS
notes: trispecific scDb-scFv anti-PDL1 x CD137 x HSA; also called PRO1051; 38-02-A04 sc01 scDb-i/33-03-G02 sc01 scDb-o/19-01-H04-sc03 scFv
As usually defined, the koff is the rate constant with which the complex falls apart. A higher koff goes with a short-lived complex. A word on the Kd: it is a measure of binding affinity in units of concentration. A high value points to a looser complex. The term kon denotes the rate constant with which the complex forms. Low readings indicate slower complex formation, high ones faster complex formation. Take B1: in test [1], the “IC50 (ng/ml), NF-AT potency assay, +HSA” value was 275 ng/mL and the “rel. IC50 (avelumab/test), +HSA” value stood at 0.25 fold. The binding result in test [2] was “no binding”. In test [3], the off-rate constant (koff) is 0.0003 s⁻¹. Also, in test [4], the affinity, expressed as Kd, was 0.0066 nM and the kon came out at 2e+06 M⁻¹ s⁻¹. In test [5], this molecule showed a Kd of 3 nM, an off-rate (koff) of 0.00062 s⁻¹ and an association rate constant (kon) of 200000 M⁻¹ s⁻¹. Besides, the “max. activation (%), NFkB reporter, CHO-PD-L1, 24 h, +HSA” value in test [6] amounted to 369%.
